Publication PMC3202669

Target: 7c12 monobody displayed on phage
Test: ELISA

fold reduction of binding against WT: 400 fold
Substance: GST-Abl SH2 I164E (domain or fragment)
